Molecular target: T1, RANBP17^1-252, GAL4 DNA binding domain fusion (pM) (human (cDNA library of DU145 cells), UniProt Q9H2T7 1-252)
T1 sequence (looked up): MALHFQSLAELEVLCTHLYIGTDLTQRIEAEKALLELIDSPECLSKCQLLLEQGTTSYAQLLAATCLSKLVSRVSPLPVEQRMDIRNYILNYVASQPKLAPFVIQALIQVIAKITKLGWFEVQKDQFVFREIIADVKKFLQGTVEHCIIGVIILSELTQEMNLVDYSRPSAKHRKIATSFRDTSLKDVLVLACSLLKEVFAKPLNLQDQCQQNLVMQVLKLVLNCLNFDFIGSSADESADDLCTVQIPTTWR
Test: two-hybrid

fold increase in luciferase activity against empty vector transfectants: 5.7 fold
B1: E12^508-654, VP16 activation domain fusion (pVP16) (domain or fragment, human, UniProt P15923 508-654, looked up)
chain: TSAADHSEEEKKELKAPRARTSPDEDEDDLLPPEQKAEREKERRVANNARERLRVRDINEAFKELGRMCQLHLNSEKPQTKLLILHQAVSVILNLEQQVRERNLNPKAACLKRREEEKVSGVVGDPQMVLSAPHPGLSEAHNPAGHM

Source: paper PMC2930062 (Journal of cellular biochemistry, 2010)
